The record followed here is article PMC11488477, “TDP-43 Amyloid Fibril Formation via Phase Separation-Related and -Unrelated Pathways” (ACS Chemical Neuroscience, 2024).

The series deals with the molecule itself. Description: thioflavin T fluorescence + negative-stain TEM; protein alone in buffer with ThT, 20 uM (higher at pH 4 and 5), pH 4-7, 0-300 mM NaCl, 1% DMSO, 96-well plate, 30 °C; long-period assays (Figure 5) incubated without shaking; self-assembly into amyloid fibrils.

B1: C-terminal domain of TDP-43 (residues 266-414), wild type (domain or fragment, UniProt Q13148 266-414, looked up)
chain: SNRQLERSGRFGGNPGGFGNQGGFGNSRGGGAGLGNNQGSNMGGGMNFGAFSINPAMMAAAQAALQSSWGMMGMLASQQNQSGPSGNNQNQGNMQREPNQAFGSGNNSYSGSNSGAAIGWGSASNAGSGSGFNGGFGSSMDSKSSGWGM
notes: TDP-43, C-terminal domain (intrinsically disordered region), residues 266-414; UniProt entry Q13148; also called TDP-43's IDR; wild-type TDP-43
B1: the binding result is “binds”.
